# US11466255B2, “Methods and compositions for converting non-endocrine pancreatic tissue into insulin-producing cells” (UNIVERSITY OF MIAMI, priority 2015, dated 2022)
# B1: BMP-7: 35 kDa homodimeric protein of the TGF-β superfamily; FDA-approved agent; human mature chain SEQ ID NO:1/2 (protein, listed as Homo sapiens)
# chain: IRSTGSKQRSQNRSKTPKNQEALRMANVAENSSSDQRQACKKHELYVSFRDLGWQDWIIAPEGYAAYYCEGECAFPLNSYMNATNHAIVQTLVHFINPETVPKPCCAPTQLNAISVLYFDDSSNVILKKYRNMVVRACGCH
# modifications: homodimer; human mature chain of BMP-7 (NCBI Reference Sequence NM_001719.2) comprising peptide from 293-431
# What was measured:
# nude rat (RNU) grafts = assay: Local BMP-7 delivery to hNEPT or PR2Y1+/ALK3+ cells under kidney capsule of nude rats; assay type: in vivo; details: POD +21
# From the text: The nude rat (RNU, Crl:NIH-Foxn1^rnu) is chosen over mice due to the specific BMP-7 local delivery system designed for this purpose, requiring surgical procedures for which a larger animal size would be beneficial. […] The kidney sub-capsular space of rodents is a well-established ectopic site for pancreatic cell (and particularly islet) transplantation^54,55. There are reports of success in the continuous delivery of compounds to pancreatic cells previously implanted under the kidney capsule of rats^38 using Alzet® osmotic pumps that release solution at a rate of 0.5 μl/h for 2 weeks.
# While exocrine and endocrine cells coexist in the pancreas, cultured hNEPT lack native ECM for proper compartmentalization, and acinar secretions may be harmful for endocrine cells^37. Acinar cells present in hNEPT after BMP-7 treatment persist in grafts^17. This observation was hypothesized to be one reason behind the sub-optimal performance of BMP-7-treated hNEPT in vivo (see Example 2). […] The first phase of these studies transplants unfractionated hNEPT (0.5-1×10^7 cells) previously grown for 48h in attachment (prior to BMP-7 treatment) under the kidney capsule of nude rats. […] Rats are euthanized at POD +21 and their grafts analyzed by IF for C-peptide as well as the 15 pancreatic marker panel of Example 8. […]
# [1] = tested on: P2RY1+/ALK3+ sorted cells; assay: Sorted P2RY1+/ALK3+ cells treated with BMP-7 with or without dorsomorphin; assay type: cell-based, human; details: 100 ng/μl BMP-7, qRT-PCR and IF
# Description: A 2-color FACS selection for dissociated hNEPT (as well as collagenase-digested MPDs) that are positive for the surface markers P2RY1 and ALK3 (Life Span Biosciences) is conducted. This approach has already been successfully tested, as is shown herein. Sorted cells are treated with 100 ng/μl of BMP-7 with or without dorsomorphin, which inhibits BMP signaling. Additional aliquots receive no treatment. […] This is determined by qRT-PCR and IF as above, as well as ultrastructural analyses by TEM.
# ALK3+ cells from hNEPT = assay: BMP-7 response of ALK3-enriched / ALK3+-sorted fraction; assay type: cell-based, human
# Description: Magnetic bead-based methods (Miltenyi) were used for the enrichment of ALK3+ cells from hNEPT. Both enriched and negative fractions are subsequently plated and treated with BMP-7 or left untreated (controls).
# The identity of sorted cells is confirmed by IF, and aliquots are cultured in adherent conditions. Single sorted pancreatic cells are notoriously difficult to culture in plastic, which is addressed by using a combination of Matrigel®-coated plates and fully defined media [STEMPRO® (Thermofisher Scientific, Grand Island, N.Y.) or Kubota's Medium® (PhoenixSongs Biologicals Branford, Conn.)]^8,29,48,49 Matrigel® is used to grow multipotent pancreatic cells^50,51. Colonies from dissociated ALK3^+ cells sorted from fresh hNEPT are readily grown in these conditions, and resemble those obtained from the MPD without sorting. The typical “ring” morphology described by others^50,51 is observed when plating ALK3^+ cells in 3D conditions or fibroblast feeder cells.
molecule,measurement,setting,value
B1,islet-like structures within the graft,"nude rat (RNU) grafts; PR2Y1+/ALK3+ cell graft, BMP-7 by iPRECIO pump",abundant islet-like structures within the graft
same,in vivo β-like cell formation compared to controls,"nude rat (RNU) grafts; unfractionated hNEPT graft, BMP-7 by pump for 14 d",Substantial in vivo β-like cell formation
same,expression of endocrine differentiation genes vs. control or BMP-7+dorsomorphin,[1],induces the expression of endocrine differentiation genes
same,increase in insulin expression vs. non-BMP-7 treated controls,"ALK3+ cells from hNEPT; ALK3+-sorted cells, preliminary qRT-PCR",10^3 fold
same,response in terms of C-peptide production,"ALK3+ cells from hNEPT; magnetic bead ALK3-enriched fraction, only this fraction responds",BMP-7-responsive
